Results: publication PMC6127106, “Apolipoprotein A-IV binds αIIbβ3 integrin and inhibits thrombosis” (Nature Communications, 2018)

Target: purified human platelet αIIbβ3 integrin (human, UniProt P05106 27-788)
Assay: ELISA; competition: αIIbβ3 (1 µg) immobilised on the plate, Fg 1 µM with apoA-IV 0–10 µM; TBS, 0.05% Tween-20, 1 mM each MgCl2, MnCl2, CaCl2; 1 h at 37 °C; anti-fibrinogen IgG and anti-mouse IgG-HRP
Conditions: both partners purified

B1: recombinant human apoA-IV (ligand, UniProt P06727 21-396, looked up)
chain: EVSADQVATVMWDYFSQLSNNAKEAVEHLQKSELTQQLNALFQDKLGEVNTYAGDLQKKLVPFATELHERLAKDSEKLKEEIGKELEELRARLLPHANEVSQKIGDNLRELQQRLEPYADQLRTQVSTQAEQLRRQLTPYAQRMERVLRENADSLQASLRPHADELKAKIDQNVEELKGRLTPYADEFKVKIDQTVEELRRSLAPYAQDTQEKLNHQLEGLTFQMKKNAEELKARISASAEELRQRLAPLAEDVRGNLRGNTEGLQKSLAELGGHLDQQVEEFRRRVEPYGENFNKALVQQMEQLRQKLGPHAGDVEGHLSFLEKDLRDKVNSFFSTFKEKESQDKTLSLPELEQQQEQQQEQQQEQVQMLAPLES
notes: apolipoprotein A-IV, human; also called rH-ApoA-IV; rH-apoA-IV; source: E. coli, purified (His GraviTrap IMAC, tag cut with TEV protease); not shown: His6, N-terminal, cleaved
IC50: 1320 nM
